Biological target: recombinant human MMP-9 catalytic domain (residues 112-445) (human) (UniProt P14780)
Chain of UniProt P14780 (P14780 112-445): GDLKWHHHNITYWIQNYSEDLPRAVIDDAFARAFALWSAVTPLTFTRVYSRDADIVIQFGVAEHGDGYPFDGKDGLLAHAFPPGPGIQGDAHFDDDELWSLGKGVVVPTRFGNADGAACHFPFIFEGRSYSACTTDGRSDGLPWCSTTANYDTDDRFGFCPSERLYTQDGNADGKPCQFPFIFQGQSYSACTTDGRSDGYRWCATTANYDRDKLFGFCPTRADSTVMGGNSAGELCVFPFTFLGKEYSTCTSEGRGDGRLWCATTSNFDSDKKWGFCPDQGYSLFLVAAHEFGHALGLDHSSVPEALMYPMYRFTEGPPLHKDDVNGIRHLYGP

Kcat/Km of hydrolysis of the FRET-tagged peptide by the MMP-9 catalytic domain: 8650 M⁻¹ s⁻¹
B1: VCAN p.1335-1347 FRET substrate (5-FAM-…-QXL) (peptide)
peptide: GRMSDLSMIGHPI
modifications: 5-FAM on the N-terminus, QXL quencher on the C-terminus (5-FAM-GRMSDLSMIGHPI-QXL)

Reference: PMC6735613
